Test results taken from the supplement of paper PMC9112550, “Optimization of the antimicrobial peptide Bac7 by deep mutational scanning” (BMC Biology, 2022).

system: Escherichia coli TOP10; test: shrunken log2 fold change of peptide-encoding DNA abundance (4.5 h post-induction vs induction); higher = less antimicrobial activity (less host growth inhibition); conditions: time post-induction: 4.5 h; library: site-saturation at positions 5, 18, 19, 20
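Further: peptides expressed intracellularly from a pBAD plasmid library in pooled LB shake-flask culture, induced with 0.3% L-arabinose, DNA abundance read by NGS, three biological replicates, DESeq2 with apeglm shrinkage.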

Sequence	shrunken log2 fold change
RRIRIRPPRLPRPRPRPMNVPRP	-0.122
RRIRARPPRLPRPRPRPKVVPRP	-0.0348
RRIRRRPPRLPRPRPRPDIPPRP	-0.22
RRIRFRPPRLPRPRPRPCYFPRP	-0.379
RRIRGRPPRLPRPRPRPCADPRP	1.48
RRIRWRPPRLPRPRPRPWMAPRP	0.0321
RRIRHRPPRLPRPRPRPEYRPRP	-0.0136
RRIRGRPPRLPRPRPRPICQPRP	0.655
RRIRERPPRLPRPRPRPDSDPRP	-0.0703
RRIRERPPRLPRPRPRPQGGPRP	-0.0586
RRIRGRPPRLPRPRPRPDMIPRP	0.531
RRIRKRPPRLPRPRPRPWSWPRP	0.00624
RRIRHRPPRLPRPRPRPNLCPRP	0.0613
RRIRKRPPRLPRPRPRPRLYPRP	0.0187
RRIRHRPPRLPRPRPRPSEDPRP	-0.00172
RRIRARPPRLPRPRPRPIITPRP	-0.298
RRIRHRPPRLPRPRPRPYPLPRP	-0.641
RRIRRRPPRLPRPRPRPLTHPRP	0.275
RRIRGRPPRLPRPRPRPHEKPRP	0.0144
RRIRSRPPRLPRPRPRPRLRPRP	0.287
RRIRRRPPRLPRPRPRPYYQPRP	-0.617
RRIRPRPPRLPRPRPRPWLKPRP	-0.371
RRIRERPPRLPRPRPRPFPMPRP	-0.423
RRIRPRPPRLPRPRPRPCCTPRP	-0.12
RRIRARPPRLPRPRPRPCGWPRP	0.365

Sequence	shrunken log2 fold change
RRIRRRPPRLPRPRPRPWLNPRP	-0.0295
RRIRSRPPRLPRPRPRPYGSPRP	-0.0102
RRIRVRPPRLPRPRPRPTGDPRP	-0.0504
RRIRKRPPRLPRPRPRPQPAPRP	0.783
RRIRMRPPRLPRPRPRPTHRPRP	0.929
RRIRIRPPRLPRPRPRPEPAPRP	0.326
RRIRVRPPRLPRPRPRPAMGPRP	0.34
RRIRSRPPRLPRPRPRPLEFPRP	-0.195
RRIRARPPRLPRPRPRPQAAPRP	1.14
RRIRRRPPRLPRPRPRPMFFPRP	-0.0274
RRIRPRPPRLPRPRPRPPMHPRP	0.359
RRIRNRPPRLPRPRPRPNTHPRP	-0.584
RRIRERPPRLPRPRPRPPEKPRP	-0.0038
RRIRQRPPRLPRPRPRPPMMPRP	0.154
RRIRYRPPRLPRPRPRPVLGPRP	0.0727
RRIRWRPPRLPRPRPRPRMFPRP	0.182
RRIRNRPPRLPRPRPRPNACPRP	-0.0239
RRIRRRPPRLPRPRPRPNAQPRP	0.287
RRIRYRPPRLPRPRPRPHKVPRP	-0.739
RRIRVRPPRLPRPRPRPTPRPRP	0.859
RRIRFRPPRLPRPRPRPNYPPRP	-0.268
RRIRYRPPRLPRPRPRPWKPPRP	-0.2
RRIRYRPPRLPRPRPRPGQGPRP	-0.0311
RRIRCRPPRLPRPRPRPIPLPRP	0.148
RRIRVRPPRLPRPRPRPLHAPRP	0.473

Sequence	shrunken log2 fold change
RRIRARPPRLPRPRPRPKMPPRP	0.114
RRIRGRPPRLPRPRPRPGATPRP	1.39
RRIRLRPPRLPRPRPRPSAMPRP	-0.347
RRIRNRPPRLPRPRPRPVHQPRP	-0.121
RRIRDRPPRLPRPRPRPRTWPRP	0.0224
RRIRHRPPRLPRPRPRPCSYPRP	-0.0203
RRIRFRPPRLPRPRPRPAIFPRP	-0.416
RRIRTRPPRLPRPRPRPFARPRP	0.00253
RRIRIRPPRLPRPRPRPWGCPRP	-0.307
RRIRCRPPRLPRPRPRPLPFPRP	-0.71
RRIRTRPPRLPRPRPRPWYLPRP	-0.0692
RRIRRRPPRLPRPRPRPFQQPRP	0.282
RRIRYRPPRLPRPRPRPMKYPRP	-0.00968
RRIRSRPPRLPRPRPRPGQWPRP	-0.0109
RRIRCRPPRLPRPRPRPNAYPRP	-0.502
RRIRCRPPRLPRPRPRPQMHPRP	-0.27
RRIRPRPPRLPRPRPRPWMCPRP	-0.366
RRIRLRPPRLPRPRPRPECQPRP	-0.00577
RRIRDRPPRLPRPRPRPWDIPRP	-0.0043
RRIRGRPPRLPRPRPRPCTFPRP	0.0341
RRIRSRPPRLPRPRPRPSPTPRP	-0.0425
RRIRDRPPRLPRPRPRPACIPRP	0.194
RRIRPRPPRLPRPRPRPIPNPRP	-0.353
RRIRCRPPRLPRPRPRPFDFPRP	-0.342
RRIRNRPPRLPRPRPRPIAEPRP	0.196

Sequence	shrunken log2 fold change
RRIRPRPPRLPRPRPRPWCEPRP	-0.0374
RRIRNRPPRLPRPRPRPQARPRP	-0.0332
RRIRTRPPRLPRPRPRPMHWPRP	0.209
RRIRIRPPRLPRPRPRPLARPRP	0.346
RRIRFRPPRLPRPRPRPTWFPRP	0.0971
RRIRFRPPRLPRPRPRPAFPPRP	0.00578
RRIRYRPPRLPRPRPRPTQQPRP	-0.00797
RRIRFRPPRLPRPRPRPLHHPRP	-0.434
RRIRFRPPRLPRPRPRPPYMPRP	-0.43
RRIRSRPPRLPRPRPRPASFPRP	-0.226
RRIRDRPPRLPRPRPRPMTNPRP	-0.184
RRIRPRPPRLPRPRPRPMLQPRP	-0.105
RRIRRRPPRLPRPRPRPQWWPRP	0.297
RRIRIRPPRLPRPRPRPMKHPRP	-0.224
RRIRDRPPRLPRPRPRPRMAPRP	0.465
RRIRQRPPRLPRPRPRPSTQPRP	-0.481
RRIRDRPPRLPRPRPRPNCYPRP	-0.414
RRIRLRPPRLPRPRPRPMFAPRP	0.082
RRIRYRPPRLPRPRPRPEGFPRP	-0.487
RRIRDRPPRLPRPRPRPLSLPRP	0.0554
RRIRNRPPRLPRPRPRPFHIPRP	-0.0783
RRIRKRPPRLPRPRPRPYHCPRP	-0.0129
RRIRGRPPRLPRPRPRPNHSPRP	0.195
RRIRRRPPRLPRPRPRPKRGPRP	0.44
RRIRARPPRLPRPRPRPSLWPRP	0.974

Sequence	shrunken log2 fold change
RRIRFRPPRLPRPRPRPCNSPRP	-0.0848
RRIRKRPPRLPRPRPRPCVYPRP	0.109
RRIRWRPPRLPRPRPRPDNMPRP	-0.0443
RRIRERPPRLPRPRPRPHLRPRP	-0.173
RRIRLRPPRLPRPRPRPWFTPRP	-0.509
RRIRSRPPRLPRPRPRPEIKPRP	0.104
RRIRMRPPRLPRPRPRPTNLPRP	-0.0631
RRIRVRPPRLPRPRPRPDVPPRP	-0.0976
RRIRWRPPRLPRPRPRPWYVPRP	-0.396
RRIRVRPPRLPRPRPRPWHMPRP	-0.672
RRIRMRPPRLPRPRPRPLPPPRP	1.37
RRIRMRPPRLPRPRPRPERYPRP	0.362
RRIRQRPPRLPRPRPRPRMYPRP	-0.2
RRIRQRPPRLPRPRPRPNRKPRP	-0.141
RRIRTRPPRLPRPRPRPVWYPRP	-0.456
RRIRERPPRLPRPRPRPTSKPRP	-0.426
RRIRWRPPRLPRPRPRPTSFPRP	-0.0166
RRIRARPPRLPRPRPRPFTTPRP	-0.0831
RRIRKRPPRLPRPRPRPQCHPRP	0.273
RRIRMRPPRLPRPRPRPSEYPRP	0.0493
RRIRVRPPRLPRPRPRPAGWPRP	0.689
RRIRSRPPRLPRPRPRPWCMPRP	-0.781
RRIRWRPPRLPRPRPRPFDYPRP	-0.554
RRIRRRPPRLPRPRPRPVIRPRP	0.1
RRIRFRPPRLPRPRPRPFCEPRP	-0.124

Sequence	shrunken log2 fold change
RRIRPRPPRLPRPRPRPWLIPRP	-0.31
RRIRPRPPRLPRPRPRPDRGPRP	0.0265
RRIRGRPPRLPRPRPRPHGHPRP	0.382
RRIRYRPPRLPRPRPRPTIFPRP	-0.412
RRIRSRPPRLPRPRPRPMHDPRP	-0.314
RRIRLRPPRLPRPRPRPCRIPRP	-0.0656
RRIRWRPPRLPRPRPRPRVPPRP	0.444
RRIRPRPPRLPRPRPRPKDDPRP	-0.0737
RRIRPRPPRLPRPRPRPEELPRP	0.0725
RRIRDRPPRLPRPRPRPRVLPRP	0.173
RRIRKRPPRLPRPRPRPYICPRP	0.0572
RRIRIRPPRLPRPRPRPDHEPRP	0.147
RRIRMRPPRLPRPRPRPASMPRP	0.311
RRIRTRPPRLPRPRPRPIFAPRP	0.408
RRIRNRPPRLPRPRPRPQWTPRP	-0.0119
RRIRPRPPRLPRPRPRPMEKPRP	-0.00992
RRIRGRPPRLPRPRPRPNKNPRP	0.3
RRIRARPPRLPRPRPRPSCIPRP	-0.131
RRIRWRPPRLPRPRPRPSWYPRP	-0.239
RRIRDRPPRLPRPRPRPGMKPRP	-0.00884
RRIRDRPPRLPRPRPRPTHTPRP	-0.311
RRIRERPPRLPRPRPRPASSPRP	0.0151
RRIRSRPPRLPRPRPRPVEYPRP	-0.553
RRIRGRPPRLPRPRPRPASQPRP	0.76
RRIRFRPPRLPRPRPRPFGCPRP	-0.0616
